# Assay results published in the supplement of paper PMC10567573.
# B1: TMEM106C (parent)
# chain: FTGRDSITCLTCQGTGYIPTEQVN
# Variants of: B1
# Assay: protein stability index of a GFP-peptide fusion (GPS, HEK-293T) (PSI 1-6); higher = more stable
# Settings: c terminus: a fixed tail appended
# 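Further: lentivirally expressed fusions sorted by FACS into six bins by GFP to DsRed ratio, PSI derived from sequencing read proportions per bin multiplied by bin number.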
row,Variant,protein stability index
1,FTGRDSITCLTCQHTGYIPTEQVN [G14H],1.88
2,FTGRDSITCLTCQLTGYIPTEQVN [G14L],2.8
3,FTGRDSITCLTCQITGYIPTEQVN [G14I],2.53
4,FTGRDSITCLTCQQTGYIPTEQVN [G14Q],1.99
5,FTGRDSITCLTCQVTGYIPTEQVN [G14V],2.35
6,FTGRDSITCLTCQATGYIPTEQVN [G14A],1.5
7,FTGRDSITCLTCQDTGYIPTEQVN [G14D],1.56
8,FTGRDSITCLTCQRTGYIPTEQVN [G14R],2.24
9,FTGRDSITCLTCQCTGYIPTEQVN [G14C],1.89
10,FTGRDSITCLTCQSTGYIPTEQVN [G14S],1.58
11,FTGRDSITCLTCQPTGYIPTEQVN [G14P],1.29
12,FTGRDSITCLTCQNTGYIPTEQVN [G14N],1.74
13,FTGRDSITCLTCQETGYIPTEQVN [G14E],2.28
14,FTGRDSITCLTCQFTGYIPTEQVN [G14F],2.99
15,FTGRDSITCLTCQKTGYIPTEQVN [G14K],1.66
16,FTGRDSITCLTCQMTGYIPTEQVN [G14M],2.91
17,FTGRDSITCLTCQWTGYIPTEQVN [G14W],1.69
18,FTGRDSITCLTCQTTGYIPTEQVN [G14T],2.33
19,FTGRDSITCLTCQGYGYIPTEQVN [T15Y],2.52
20,FTGRDSITCLTCQGLGYIPTEQVN [T15L],1.89
21,FTGRDSITCLTCQGAGYIPTEQVN [T15A],2.12
22,FTGRDSITCLTCQGQGYIPTEQVN [T15Q],1.53
23,FTGRDSITCLTCQGRGYIPTEQVN [T15R],2.26
24,FTGRDSITCLTCQGKGYIPTEQVN [T15K],2.12

row,Variant,protein stability index
1,FTGRDSITCLTCQGFGYIPTEQVN [T15F],2.26
2,FTGRDSITCLTCQGEGYIPTEQVN [T15E],1.64
3,FTGRDSITCLTCQGNGYIPTEQVN [T15N],1.62
4,FTGRDSITCLTCQGPGYIPTEQVN [T15P],2.1
5,FTGRDSITCLTCQGGGYIPTEQVN [T15G],1.43
6,FTGRDSITCLTCQGDGYIPTEQVN [T15D],1.81
7,FTGRDSITCLTCQGMGYIPTEQVN [T15M],2.59
8,FTGRDSITCLTCQGHGYIPTEQVN [T15H],2.09
9,FTGRDSITCLTCQGWGYIPTEQVN [T15W],2.34
10,FTGRDSITCLTCQGSGYIPTEQVN [T15S],1.56
11,FTGRDSITCLTCQGCGYIPTEQVN [T15C],2.26
12,FTGRDSITCLTCQGIGYIPTEQVN [T15I],2.16
13,FTGRDSITCLTCQGVGYIPTEQVN [T15V],2.04
14,FTGRDSITCLTCTGTGYIPTEQVN [Q13T],2.71
15,FTGRDSITCLTCEGTGYIPTEQVN [Q13E],1.95
16,FTGRDSITCLTCAGTGYIPTEQVN [Q13A],2.23
17,FTGRDSITCLTCDGTGYIPTEQVN [Q13D],1.83
18,FTGRDSITCLTCYGTGYIPTEQVN [Q13Y],2.38
19,FTGRDSITCLTCFGTGYIPTEQVN [Q13F],2.17
20,FTGRDSITCLTCHGTGYIPTEQVN [Q13H],2.09
21,FTGRDSITCLTCRGTGYIPTEQVN [Q13R],2.18
22,FTGRDSITCLTCNGTGYIPTEQVN [Q13N],2.39
23,FTGRDSITCLTCGGTGYIPTEQVN [Q13G],2.28
24,FTGRDSITCLTCPGTGYIPTEQVN [Q13P],1.94

row,Variant,protein stability index
1,FTGRDSITCLTCLGTGYIPTEQVN [Q13L],2.13
2,FTGRDSITCLTCVGTGYIPTEQVN [Q13V],2
3,FTGRDSITCLTCWGTGYIPTEQVN [Q13W],2.52
4,FTGRDSITCLTCIGTGYIPTEQVN [Q13I],2.35
5,FTGRDSITCLTCSGTGYIPTEQVN [Q13S],1.92
6,FTGRDSITCLTCMGTGYIPTEQVN [Q13M],1.75
7,FTGRDSITCLTCKGTGYIPTEQVN [Q13K],1.96
8,FTGRDSITCLTCCGTGYIPTEQVN [Q13C],1.53
9,FTGRDSITCLTCQGTGNIPTEQVN [Y17N],1.93
10,FTGRDSITCLTCQGTGAIPTEQVN [Y17A],1.8
11,FTGRDSITCLTCQGTGDIPTEQVN [Y17D],2.17
12,FTGRDSITCLTCQGTGLIPTEQVN [Y17L],1.84
13,FTGRDSITCLTCQGTGRIPTEQVN [Y17R],2.34
14,FTGRDSITCLTCQGTGEIPTEQVN [Y17E],2.2
15,FTGRDSITCLTCQGTGSIPTEQVN [Y17S],1.68
16,FTGRDSITCLTCQGTGPIPTEQVN [Y17P],1.91
17,FTGRDSITCLTCQGTGFIPTEQVN [Y17F],1.64
18,FTGRDSITCLTCQGTGTIPTEQVN [Y17T],2.16
19,FTGRDSITCLTCQGTGKIPTEQVN [Y17K],1.94
20,FTGRDSITCLTCQGTGCIPTEQVN [Y17C],2.13
21,FTGRDSITCLTCQGTGIIPTEQVN [Y17I],1.92
22,FTGRDSITCLTCQGTGHIPTEQVN [Y17H],2.61
23,FTGRDSITCLTCQGTGGIPTEQVN [Y17G],1.47
24,FTGRDSITCLTCQGTGMIPTEQVN [Y17M],1.77

row,Variant,protein stability index
1,FTGRDSITCLTCQGTGQIPTEQVN [Y17Q],1.79
2,FTGRDSITCLTCQGTGVIPTEQVN [Y17V],2.55
3,FTGRDSITCLTCQGTGWIPTEQVN [Y17W],3.54
4,FTGRDSITCLTCQGTVYIPTEQVN [G16V],1.85
5,FTGRDSITCLTCQGTKYIPTEQVN [G16K],1.56
6,FTGRDSITCLTCQGTAYIPTEQVN [G16A],1.92
7,FTGRDSITCLTCQGTDYIPTEQVN [G16D],1.56
8,FTGRDSITCLTCQGTQYIPTEQVN [G16Q],1.6
9,FTGRDSITCLTCQGTHYIPTEQVN [G16H],2.01
10,FTGRDSITCLTCQGTRYIPTEQVN [G16R],2.21
11,FTGRDSITCLTCQGTEYIPTEQVN [G16E],1.7
12,FTGRDSITCLTCQGTCYIPTEQVN [G16C],1.83
13,FTGRDSITCLTCQGTWYIPTEQVN [G16W],2.98
14,FTGRDSITCLTCQGTPYIPTEQVN [G16P],3.09
15,FTGRDSITCLTCQGTNYIPTEQVN [G16N],1.49
16,FTGRDSITCLTCQGTMYIPTEQVN [G16M],2.8
17,FTGRDSITCLTCQGTYYIPTEQVN [G16Y],2.08
18,FTGRDSITCLTCQGTTYIPTEQVN [G16T],2.04
19,FTGRDSITCLTCQGTSYIPTEQVN [G16S],2.05
20,FTGRDSITCLTCQGTIYIPTEQVN [G16I],2.94
21,FTGRDSITCLTCQGTFYIPTEQVN [G16F],2.71
22,FTGRDSITCLTCQGTLYIPTEQVN [G16L],2.13
